Patent US20120220015
Positions count from the first letter of the chain named. Numbers in names are those of the source.

T1: fibrin (clot formed from purified fibrinogen with α-thrombin), P02671
T1 chain 1: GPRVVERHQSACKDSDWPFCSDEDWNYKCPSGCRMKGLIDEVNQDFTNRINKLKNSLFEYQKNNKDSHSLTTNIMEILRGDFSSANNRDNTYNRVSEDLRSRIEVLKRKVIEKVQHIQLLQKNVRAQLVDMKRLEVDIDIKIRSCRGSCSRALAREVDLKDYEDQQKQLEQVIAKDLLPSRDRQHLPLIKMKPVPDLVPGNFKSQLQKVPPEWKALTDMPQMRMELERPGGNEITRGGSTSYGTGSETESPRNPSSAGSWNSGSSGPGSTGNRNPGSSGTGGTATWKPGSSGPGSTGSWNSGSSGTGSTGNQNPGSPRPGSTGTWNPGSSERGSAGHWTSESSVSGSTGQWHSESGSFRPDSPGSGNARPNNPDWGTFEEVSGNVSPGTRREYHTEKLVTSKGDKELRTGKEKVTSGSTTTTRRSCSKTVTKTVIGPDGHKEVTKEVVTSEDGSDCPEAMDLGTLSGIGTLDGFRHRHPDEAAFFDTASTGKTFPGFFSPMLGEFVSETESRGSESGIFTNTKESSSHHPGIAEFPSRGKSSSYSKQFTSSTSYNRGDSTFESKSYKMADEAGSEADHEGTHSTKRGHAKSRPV
T1 chain 2: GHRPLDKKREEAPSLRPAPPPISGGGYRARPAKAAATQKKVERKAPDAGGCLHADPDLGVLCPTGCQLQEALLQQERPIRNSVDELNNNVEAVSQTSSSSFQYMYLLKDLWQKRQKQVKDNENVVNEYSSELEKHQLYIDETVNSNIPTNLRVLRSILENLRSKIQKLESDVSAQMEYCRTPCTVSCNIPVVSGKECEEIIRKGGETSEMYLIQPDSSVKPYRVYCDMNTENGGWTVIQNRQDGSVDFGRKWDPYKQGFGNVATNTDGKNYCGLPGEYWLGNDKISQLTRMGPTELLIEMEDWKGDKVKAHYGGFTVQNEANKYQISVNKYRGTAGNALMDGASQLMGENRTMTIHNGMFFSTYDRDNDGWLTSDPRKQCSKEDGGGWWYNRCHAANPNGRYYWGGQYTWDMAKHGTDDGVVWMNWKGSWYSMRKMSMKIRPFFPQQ
T1 chain 3: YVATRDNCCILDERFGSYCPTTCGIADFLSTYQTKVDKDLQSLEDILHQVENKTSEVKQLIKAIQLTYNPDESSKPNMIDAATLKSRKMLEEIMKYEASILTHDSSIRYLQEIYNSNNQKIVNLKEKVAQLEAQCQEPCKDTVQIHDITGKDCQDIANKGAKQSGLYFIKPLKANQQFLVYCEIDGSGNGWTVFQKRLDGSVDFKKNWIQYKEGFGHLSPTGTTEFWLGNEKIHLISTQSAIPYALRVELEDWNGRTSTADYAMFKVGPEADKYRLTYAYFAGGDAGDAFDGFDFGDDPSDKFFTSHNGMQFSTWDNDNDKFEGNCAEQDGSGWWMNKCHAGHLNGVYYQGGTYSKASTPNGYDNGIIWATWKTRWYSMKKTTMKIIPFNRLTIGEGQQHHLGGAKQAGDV

T2: α2-antiplasmin, P08697
T2 chain: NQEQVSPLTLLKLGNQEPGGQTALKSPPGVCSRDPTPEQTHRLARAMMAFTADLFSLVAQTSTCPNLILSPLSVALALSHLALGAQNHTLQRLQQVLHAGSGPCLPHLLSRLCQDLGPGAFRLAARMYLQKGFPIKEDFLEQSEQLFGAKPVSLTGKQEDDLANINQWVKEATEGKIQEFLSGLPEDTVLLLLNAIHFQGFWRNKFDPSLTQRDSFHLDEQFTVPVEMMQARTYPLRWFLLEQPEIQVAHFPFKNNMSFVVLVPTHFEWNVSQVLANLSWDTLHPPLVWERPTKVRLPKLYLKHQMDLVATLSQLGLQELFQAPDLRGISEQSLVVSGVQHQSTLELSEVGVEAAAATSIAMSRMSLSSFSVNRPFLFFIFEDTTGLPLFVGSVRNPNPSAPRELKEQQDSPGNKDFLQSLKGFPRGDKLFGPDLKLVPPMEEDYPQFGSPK

B1: Lemna-derived plasmin from transgenic line BAP12-B2-150 (aglycosylated plasmin derived from mature human plasminogen with the N289D substitution) (protein)
chain 1: KVYLSECKTGNGKNYRGTMSKTKNGITCQKWSSTSPHRPRFSPATHPSEGLEENYCRNPDNDPQGPWCYTTDPEKRYDYCDILECEEECMHCSGENYDGKISKTMSGLECQAWDSQSPHAHGYIPSKFPNKNLKKNYCRNPDRELRPWCFTTDPNKRWELCDIPRCTTPPPSSGPTYQCLKGTGENYRGNVAVTVSGHTCQHWSAQTPHTHDRTPENFPCKNLDENYCRNPDGKRAPWCHTTNSQVRWEYCKIPSCDSSPVSTEQLAPTAPPELTPVVQDCYHGDGQSYRGTSSTTTTGKKCQSWSSMTPHRHQKTPENYPNAGLTMNYCRNPDADKGPWCFTTDPSVRWEYCNLKKCSGTEASVVAPPPVVLLPDVETPSEEDCMFGNGKGYRGKRATTVTGTPCQDWAAQEPHRHSIFTPETNPRAGLEKNYCRNPDGDVGGPWCYTTNPRKLYDYCDVPQCAAPSFDCGKPQVEPKKCPGR
chain 2: VVGGCVAHPHSWPWQVSLRTRFGMHFCGGTLISPEWVLTAAHCLEKSPRPSSYKVILGAHQEVNLEPHVQEIEVSRLFLEPTRKDIALLKLSSPAVITDKVIPACLPSPNYVVADRTECFVTGWGETQGTFGAGLLKEAQLPVIENKVCNRYEFLNGRVQSTELCAGHLAGGTDSCQGDSGGPLVCFEKDKYILQGVTSWGLGCARPNKPGVYVRVSRFVTWIEGVMRNN
B2: Lemna-derived plasmin from transgenic line BAP01-B2-230 (derived from mature human plasminogen with the N-linked glycosylation site Asn-289) (protein)
chain 1: B1 chain 1 with D212N
chain 2: B1 chain 2

Experiments:
[1] = molecular target: T1, fibrin (clot formed from purified …)
α2-antiplasmin, P08697 = molecular target: T2, α2-antiplasmin, P08697

| Protein | fibrin clot lysis (decrease of turbidity at 340 nm), plasmin at 500, 250, 125 and 62 nM [1] | plasmin activity (S-2403 hydrolysis at 405 nm) after 30 minutes pre-incubation with α2-AP, plasmin:α2-AP molar ratio of 1:1 (α2-antiplasmin, P08697) |
| --- | --- | --- |
| B1 | There was no evidence of a difference between fibrinolysis induced by plasmin derived from BAP01-B2-230 and BAP12-B2-150; their respective lysis profiles were very similar for all four plasmin concentrations | no plasmin activity was detected for human, BAP12-B2-150, or BAP01-B1-230 plasmin, indicating that the inhibition was complete |
| B2 | There was no evidence of a difference between fibrinolysis induced by plasmin derived from BAP01-B2-230 and BAP12-B2-150; their respective lysis profiles were very similar for all four plasmin concentrations | no plasmin activity was detected for human, BAP12-B2-150, or BAP01-B1-230 plasmin, indicating that the inhibition was complete |
